Results as given in paper PMC3518626 (Current biology : CB, 2012).

Target: the molecule itself

B1: Kip2-EGFP (natural protein, yeast, UniProt P28743 1-706, looked up)
chain: MIQKMSPSLRRPSTRSSSGSSNIPQSPSVRSTSSFSNLTRNSIRSTSNSGSQSISASSTRSNSPLRSVSAKSDPFLHPGRIRIRRSDSINNNSRKNDTYTGSITVTIRPKPRSVGTSRDHVGLKSPRYSQPRSNSHHGSNTFVRDPWFITNDKTIVHEEIGEFKFDHVFASHCTNLEVYERTSKPMIDKLLMGFNATIFAYGMTGSGKTFTMSGNEQELGLIPLSVSYLFTNIMEQSMNGDKKFDVIISYLEIYNERIYDLLESGLEESGSRISTPSRLYMSKSNSNGLGVELKIRDDSQYGVKVIGLTERRCESSEELLRWIAVGDKSRKIGETDYNARSSRSHAIVLIRLTSTNVKNGTSRSSTLSLCDLAGSERATGQQERRKEGSFINKSLLALGTVISKLSADKMNSVGSNIPSPSASGSSSSSGNATNNGTSPSNHIPYRDSKLTRLLQPALSGDSIVTTICTVDTRNDAAAETMNTLRFASRAKNVALHVSKKSIISNGNNDGDKDRTIELLRRQLEEQRRMISELKNRSNIGEPLTKSSNESTYKDIKATGNDGDPNLALMRAENRVLKYKLENCEKLLDKDVVDLQDSEIMEIVEMLPFEVGTLLETKFQGLESQIRQYRKYTQKLEDKIMALEKSGHTAMSLTGCDGTEVIELQKMLERKDKMIEALQSAKRLRDRALKPLINTQQSPHPVVDNDK
stoichiometry N: 2
